Consider 1 molecule from US20210214414A1 (Pfizer, published 2021).

One assay concerns the target T1, Human SLIT3-N (human, UniProt O75094 34-1119, limits assumed).
T1 construct: domain: SLIT3-N; d2-labelled in the HTRF assay
T1 sequence (looked up): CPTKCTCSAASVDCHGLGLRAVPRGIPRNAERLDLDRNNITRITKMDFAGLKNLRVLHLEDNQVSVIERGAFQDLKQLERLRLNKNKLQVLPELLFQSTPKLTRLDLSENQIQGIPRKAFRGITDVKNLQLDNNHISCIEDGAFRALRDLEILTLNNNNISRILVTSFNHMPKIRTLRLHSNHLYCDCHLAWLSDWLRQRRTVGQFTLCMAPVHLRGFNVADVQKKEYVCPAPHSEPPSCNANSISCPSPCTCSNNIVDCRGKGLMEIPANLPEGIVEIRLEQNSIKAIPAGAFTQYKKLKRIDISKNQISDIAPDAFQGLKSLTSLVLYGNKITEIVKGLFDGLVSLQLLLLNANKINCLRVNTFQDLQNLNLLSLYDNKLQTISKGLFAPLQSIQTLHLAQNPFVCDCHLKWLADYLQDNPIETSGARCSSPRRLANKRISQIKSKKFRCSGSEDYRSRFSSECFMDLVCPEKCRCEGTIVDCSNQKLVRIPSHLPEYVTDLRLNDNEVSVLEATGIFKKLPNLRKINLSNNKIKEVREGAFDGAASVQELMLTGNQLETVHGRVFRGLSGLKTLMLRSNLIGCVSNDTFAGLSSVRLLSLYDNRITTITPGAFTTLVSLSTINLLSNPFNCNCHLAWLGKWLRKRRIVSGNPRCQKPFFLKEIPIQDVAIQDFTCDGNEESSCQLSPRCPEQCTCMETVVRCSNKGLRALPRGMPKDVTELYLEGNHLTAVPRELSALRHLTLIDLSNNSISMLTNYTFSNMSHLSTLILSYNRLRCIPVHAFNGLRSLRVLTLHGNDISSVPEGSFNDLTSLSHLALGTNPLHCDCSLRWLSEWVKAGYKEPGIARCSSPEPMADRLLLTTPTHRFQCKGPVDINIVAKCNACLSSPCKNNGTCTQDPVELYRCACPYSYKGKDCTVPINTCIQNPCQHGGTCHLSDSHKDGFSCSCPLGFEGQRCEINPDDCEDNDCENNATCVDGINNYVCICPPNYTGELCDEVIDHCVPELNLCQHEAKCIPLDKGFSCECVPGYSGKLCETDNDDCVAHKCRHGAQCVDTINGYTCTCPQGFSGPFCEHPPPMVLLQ
The experiment in a line: HTRF competition: d2-labelled human SLIT3-N binding to human ROBO2 on HEK293 cells; geometric mean, n=3. Here is the method:
(§1) After incubation, fluorescence at 665 nm and 620 nm was measured on an Envision multilabel plate reader. The HTRF Ratio was calculated as follows: fluorescence at 665 nm/fluorescence at 620 nm×10,000. […] The IC₅₀ for each SLITx-N was determined using an 11-point, 4-fold dilution series with a top concentration of 4000 nM.
For orientation: Time-resolved FRET reads energy transfer from a long-lived donor to a nearby acceptor.

The target in the next assay is T2, Rat SLIT2-N (rat, UniProt Q9WVC1 31-766, limits assumed).
T2 construct: domain: SLIT2-N (N terminal fragment)
T2 sequence (looked up): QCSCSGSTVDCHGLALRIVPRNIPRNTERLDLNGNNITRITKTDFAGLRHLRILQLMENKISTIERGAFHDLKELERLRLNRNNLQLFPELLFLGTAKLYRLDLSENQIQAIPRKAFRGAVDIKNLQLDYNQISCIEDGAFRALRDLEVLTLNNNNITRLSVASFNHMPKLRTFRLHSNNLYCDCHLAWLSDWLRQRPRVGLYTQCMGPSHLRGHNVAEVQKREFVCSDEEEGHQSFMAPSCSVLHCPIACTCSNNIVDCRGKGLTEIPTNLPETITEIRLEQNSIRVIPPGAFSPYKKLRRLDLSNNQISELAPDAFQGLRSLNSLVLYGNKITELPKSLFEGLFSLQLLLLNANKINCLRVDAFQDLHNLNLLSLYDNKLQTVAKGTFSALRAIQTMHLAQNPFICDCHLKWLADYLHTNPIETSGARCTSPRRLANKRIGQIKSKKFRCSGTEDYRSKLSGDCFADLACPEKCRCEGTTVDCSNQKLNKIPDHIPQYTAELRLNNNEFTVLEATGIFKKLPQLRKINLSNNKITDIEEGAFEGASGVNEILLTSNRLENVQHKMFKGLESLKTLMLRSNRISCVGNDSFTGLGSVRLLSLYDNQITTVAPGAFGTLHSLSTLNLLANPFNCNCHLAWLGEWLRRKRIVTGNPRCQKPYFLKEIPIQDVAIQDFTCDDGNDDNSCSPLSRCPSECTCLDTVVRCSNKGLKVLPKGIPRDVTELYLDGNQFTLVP
Put plainly: HTRF competition: d2-labelled rat SLIT2-N binding to human ROBO2 on HEK293 cells (competitor: cell surface ROBO2). As for the experimental part:
as §1

B1: ROBO2-Fc 2.2 (Fc fusion)
chain: SRLRQEDFPPRIVEHPSDVIVSKGEPTTLNCKAEGRPTPTIEWYKDGERVETDKDDPRSHRMLLPSGSLFFLRIVHGRRSKPDEGSYVCVARNYLGEAVSRNASLEVALLRDDFRQNPTDVVVAAGEPAILECQPPRGHPEPTIYWKKDKVRIDDKEERISIRGGKLMISNTRKSDAGMYTCVGTNMVGERDSDPAELTVFERGGSGGSEPKSSDKTHTCPPCPAPEAAGAPSVFLFPPKPKDTLMISRTPEVTCVVVDVSHEDPEVKFNWYVDGVEVHNAKTKPREEQYNSTYRVVSVLTVLHQDWLNGKEYKCKVSNKALPAPIEKTISKAKGQPREPQVYTLPPSREEMTKNQVSLTCLVKGFYPSDIAVEWESNGQPENNYKTTPPVLDSDGSFFLYSKLTVDKSRWQQGNVFSCSVMHEALHNHYTQKSLSLSPG
notes: Labelled with Alexa Fluor 647 in the flow cytometry assay; also called ROBO-Fc 2.2; ROBO2-Fc 2.2-AF647
For the molecule B1, the IC50 stood at 5.1 nM with Human SLIT3-N and 4 nM in the assay with Rat SLIT2-N.

By IC50 is commonly meant the concentration that gives 50% inhibition. Read a high IC50 as weaker potency in that assay.
